Laboratory results: US20230357353A1 (RAMOT AT TEL AVIV UNIVERSITY, published 2023)

Tests used:
[1] = target: T1, high affinity (HA) α4β7 integrin on activated cells (Mn2+-treated TK-1 cells or primary mouse leukocytes) (mouse, UniProt Q00651 41-1039; P26011 20-806); experiment: flow cytometry on Mn2+-treated TK-1 cells
T1 construct: whole, on cells; Same polypeptides as m4; also called LPAM-1
Experimental: (§1) In-vitro binding—TK-1 cells were activated according to Y. Yang et al.³⁰. Briefly, cells were washed with PBS and resuspended in resuspension buffer (HBSS with 10 mM HEPES buffer, 2 mM CaCl₂ and 2 mM MgCl₂). Non-activated cells were kept on ice while activated cells were resuspended in pre-incubation buffer (HBSS with 10 mM HEPES buffer and 2 mM EDTA), incubated at RT for 30 minutes with gentle rotation, washed with PBS and finally resuspended in activation buffer (HBSS with 10 mM HEPES buffer, 2 mM CaCl₂ and 2 mM MnCl₂). MAdCAM-D1D2-Fc and the controls were added to both activated and non-activated cells and incubated for 30 minutes at 4° C. Cells were subsequently washed and stained with either anti-human IgG or anti-mouse IgG conjugated to AlexaFluor647 (Biolegend, USA). Binding of D1D2-Fc to TK-1 cells was assessed by analyzing the fluorescence of the cells by flow cytometry. Binding of D1D2-targeted Cy5-LNPs was detected by flow cytometry directly using the Cy5 fluorescence (without addition of another antibody). In the binding experiments with Cy5-LNPs, the HBSS in the activation buffer was replaced with RPMI+10% FBS due to a high background using LNPs.
(§2) Following purification, the functionality of the generated D1D2-Fc and mD1D2-Fc was tested in-vitro by assessing their binding to TK-1 cells using flow cytometry. […]

[2] = target: T2, low affinity (LA) α4β7 integrin on non-activated cells (Ca2+ control, no Mn2+) (mouse, UniProt Q00651 41-1039; P26011 20-806); experiment: flow cytometry on TK-1 cells without Mn2+ (Ca2+ control)
T2 construct: whole, on cells
Experimental: as §1, §2

T2 sequence (Q00651 41-1039, chain 1 of 2): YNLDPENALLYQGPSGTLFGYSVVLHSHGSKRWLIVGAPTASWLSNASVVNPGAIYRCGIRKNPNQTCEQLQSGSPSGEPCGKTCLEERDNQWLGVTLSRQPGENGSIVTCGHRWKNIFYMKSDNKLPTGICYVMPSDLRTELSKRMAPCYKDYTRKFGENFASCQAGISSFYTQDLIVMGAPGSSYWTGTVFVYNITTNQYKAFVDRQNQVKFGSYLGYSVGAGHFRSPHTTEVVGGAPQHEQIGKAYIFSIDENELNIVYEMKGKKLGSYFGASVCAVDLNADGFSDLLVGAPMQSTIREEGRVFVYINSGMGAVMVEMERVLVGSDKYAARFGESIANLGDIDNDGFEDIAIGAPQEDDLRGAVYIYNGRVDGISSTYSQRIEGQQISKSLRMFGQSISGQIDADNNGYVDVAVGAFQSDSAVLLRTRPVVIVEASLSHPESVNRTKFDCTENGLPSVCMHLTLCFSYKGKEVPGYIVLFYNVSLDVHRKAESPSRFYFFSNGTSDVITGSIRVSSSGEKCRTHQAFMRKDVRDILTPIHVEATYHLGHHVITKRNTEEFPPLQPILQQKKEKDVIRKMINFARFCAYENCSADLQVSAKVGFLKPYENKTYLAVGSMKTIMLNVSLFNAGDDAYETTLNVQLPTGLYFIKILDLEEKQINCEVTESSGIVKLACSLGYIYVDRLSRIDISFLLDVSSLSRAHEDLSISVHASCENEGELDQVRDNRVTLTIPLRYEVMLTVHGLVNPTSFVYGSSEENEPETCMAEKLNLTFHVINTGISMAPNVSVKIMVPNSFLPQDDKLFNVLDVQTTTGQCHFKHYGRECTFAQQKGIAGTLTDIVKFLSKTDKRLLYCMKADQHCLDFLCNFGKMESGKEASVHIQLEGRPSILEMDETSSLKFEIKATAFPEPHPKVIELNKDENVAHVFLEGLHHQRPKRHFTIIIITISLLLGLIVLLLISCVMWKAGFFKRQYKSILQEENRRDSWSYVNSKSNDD
T2 sequence (P26011 20-806, chain 2 of 2): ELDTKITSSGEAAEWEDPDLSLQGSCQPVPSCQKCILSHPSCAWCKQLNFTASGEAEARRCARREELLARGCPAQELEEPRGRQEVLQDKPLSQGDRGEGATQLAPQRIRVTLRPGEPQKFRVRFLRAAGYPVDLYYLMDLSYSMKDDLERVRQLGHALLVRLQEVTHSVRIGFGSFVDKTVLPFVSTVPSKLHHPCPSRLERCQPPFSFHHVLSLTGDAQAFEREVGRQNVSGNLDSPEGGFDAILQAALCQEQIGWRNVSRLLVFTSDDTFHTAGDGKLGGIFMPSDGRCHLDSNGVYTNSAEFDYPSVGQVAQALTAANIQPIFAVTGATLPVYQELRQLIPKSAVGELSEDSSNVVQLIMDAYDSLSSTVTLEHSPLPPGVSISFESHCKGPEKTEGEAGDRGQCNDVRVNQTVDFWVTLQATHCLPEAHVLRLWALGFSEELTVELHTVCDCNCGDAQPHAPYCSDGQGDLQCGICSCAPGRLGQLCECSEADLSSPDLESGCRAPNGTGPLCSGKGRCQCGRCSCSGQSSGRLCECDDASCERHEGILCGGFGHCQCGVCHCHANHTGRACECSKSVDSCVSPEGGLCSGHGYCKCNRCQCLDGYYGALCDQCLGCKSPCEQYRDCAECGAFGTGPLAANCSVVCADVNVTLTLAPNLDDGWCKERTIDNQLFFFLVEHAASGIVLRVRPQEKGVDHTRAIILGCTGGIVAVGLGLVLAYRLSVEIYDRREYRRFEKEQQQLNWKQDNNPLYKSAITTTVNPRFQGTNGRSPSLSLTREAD
T1 sequence (Q00651 41-1039, chain 1 of 2): as the sequence (Q00651 41-1039, chain 1 of 2) above
T1 sequence (P26011 20-806, chain 2 of 2): as the sequence (P26011 20-806, chain 2 of 2) above

binding result [1]: no binding | binding result [2]: no binding
B1: MAdCAM-mD1D2-Fc fusion protein (D62A mutated control) (Fc fusion)
chain: DYKDDDDKLAAAQSFQVNPPESEVAVAMGTSLQITCSMSCDEGVARVHWRGLATSLGSVQTLPGSSILSVRGMLSDTGTPVCVGSCGSRSFQHSVKILVYAFPDQLVVSPEFLVPGQDQVVSCTAHNIWPADPNSLSFALLLGEQRLEGAQALEPEQEEEIQEAEGTPLFRMTQRWRLPSLGTPAPPALHCQVTMQLPKLVLTHRKEIPVLGGGGSGGGGSGGGGSVPRECNPCGCTGSEVSSVFIFPPKTKDVLTITLTPKVTCVVVDISQNDPEVRFSWFIDDVEVHTAQTHAPEKQSNSTLRSVSELPIVHRDWLNGKTFKCKVNSGAFPAPIEKSISKPEGTPRGPQVYTMAPPKEEMTQSQVSITCMVKGFYPPDIYTEWKMNGQPQENYKNTPPTMDTDGSYFLYSKLNVKKETWQQGNTFTCSVLHEGLHNHHTEKSLSHSPGKGSGHHHHHH
notes: The signal peptide, FLAG-tag and 6x HIS-tag are as in D1D2-Fc; also called mD1D2 control; targeting protein of the mD1D2-targeted LNPs (mD1D2-LNPs)
